Experimental data published in publication PMC3669278, “An Iron 13S-Lipoxygenase with an α-Linolenic Acid Specific Hydroperoxidase Activity from Fusarium oxysporum” (PLoS ONE, 2013).

What was measured:
FoxLOX = molecular target: T1, FoxLOX (Fusarium oxysporum, UniProt A0A0J9UTC2); experiment: initial rate of conjugated diene formation at […] nm, Michaelis-Menten fit; type: biochemical; conditions: 50 mM Tris/HCl pH 8.0, room temperature, air-equilibrated, fatty acid sodium salt
T1 construct: gene FOXG_04807; full-length ORF, 744 residues, in pET28a with N-terminal hexa-His tag (removal not mentioned); E. coli Bl21star; non-heme iron; iron-ligand residues His-408, His-413, His-595, Asp-599, Ile-744
T1 sequence (A0A0J9UTC2 1-744): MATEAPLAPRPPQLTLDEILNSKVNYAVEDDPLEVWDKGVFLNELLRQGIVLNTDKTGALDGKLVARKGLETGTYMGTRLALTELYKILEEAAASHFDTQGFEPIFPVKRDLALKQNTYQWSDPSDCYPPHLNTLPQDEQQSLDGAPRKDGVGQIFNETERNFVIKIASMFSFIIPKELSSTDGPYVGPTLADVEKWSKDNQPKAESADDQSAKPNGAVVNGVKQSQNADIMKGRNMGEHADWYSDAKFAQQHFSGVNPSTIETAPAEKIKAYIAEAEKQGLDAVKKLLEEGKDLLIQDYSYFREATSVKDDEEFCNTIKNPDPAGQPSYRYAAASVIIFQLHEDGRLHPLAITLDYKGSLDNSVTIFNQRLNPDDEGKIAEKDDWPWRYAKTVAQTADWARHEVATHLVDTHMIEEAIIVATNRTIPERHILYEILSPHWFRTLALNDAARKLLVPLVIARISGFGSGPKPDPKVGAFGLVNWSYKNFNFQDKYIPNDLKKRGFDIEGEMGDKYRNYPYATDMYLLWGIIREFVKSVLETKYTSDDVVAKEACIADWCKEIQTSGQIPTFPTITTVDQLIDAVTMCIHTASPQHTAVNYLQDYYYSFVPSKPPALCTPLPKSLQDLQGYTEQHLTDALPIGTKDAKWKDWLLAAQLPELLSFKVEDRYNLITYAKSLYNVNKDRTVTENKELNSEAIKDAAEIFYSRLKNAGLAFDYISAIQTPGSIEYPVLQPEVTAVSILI

[1] = molecular target: FoxLOX (Fusarium oxysporum lipoxygenase, iron 13S-lipoxygenase) (Fusarium oxysporum f. sp. lycopersici strain 4287); experiment: SEC; S200pg 26/60 column; 50 mM Tris/HCl pH 8.0, 10% glycerol, 125 mM NaCl; affinity-purified FoxLOX; apparent mass about 173 kDa against about 80 kDa by SDS-PAGE and 83.5 kDa theoretical
purified protein = substrate: CCCCC/C=C\C/C=C\C/C=C\C/C=C\CCCC(=O)O; experiment: purified protein; type: biochemical, Fusarium oxysporum; conditions: 50 mM Tris/HCl pH 8.0, room temperature, air-equilibrated, fatty acid sodium salt

Question: How did the Km (FoxLOX) turn out when CCCCC/C=C\C/C=C\CCCCCCCC(=O)O [18∶2(n-6)] was run?
Answer: The Km was 6.89 ± 0.79 µM.

Question: How did the Km (FoxLOX) turn out when CC/C=C\C/C=C\C/C=C\CCCCCCCC(=O)O [18∶3(n-3)] was run?
Answer: The Km was 31.7 ± 3.79 µM.

Question: Which Km (FoxLOX) does the source give for CCCCC/C=C\C/C=C\C/C=C\CCCCC(=O)O [18∶3(n-6)] here?
Answer: The Km was 34.8 ± 5.38 µM.

Question: For “FoxLOX (Fusarium oxysporum lipoxygenase, iron 13S-lipoxygenase) (enzyme)”, which stoichiometry N [1] is on record?
Answer: The stoichiometry N was 2.

B1: FoxLOX (Fusarium oxysporum f. sp. lycopersici 4287) (protein)
chain: T1 sequence (A0A0J9UTC2 1-744)
notes: full-length ORF, 744 residues, in pET28a with N-terminal hexa-His tag (removal not mentioned); E. coli Bl21star; non-heme iron; iron-ligand residues His-408, His-413, His-595, Asp-599, Ile-744
Question: For B1, which Km (purified protein) is on record?
Answer: The Km was 3.37 ± 0.55 µM.

Question: What about the kcat (purified protein) of the same molecule?
Answer: Its kcat is 1.71 ± 0.0632 s⁻¹.

Question: What about the kcat/Km (purified protein) of the same molecule?
Answer: Its kcat/Km is 507000 M⁻¹ s⁻¹.
